Earlier results on one substance are cited in patent US20070032474A1, “Use of a compound of formula 1 for making a pharmaceutical composition” (priority 2003, published 2007).

The target of the data set is PKBbeta (Homo sapiens, UniProt P31751). Particulars: background, reference (5); read-out: AC50 (activation of PKBbeta).
Chain of PKBbeta (P31751 146-460 limits assumed, species assumed): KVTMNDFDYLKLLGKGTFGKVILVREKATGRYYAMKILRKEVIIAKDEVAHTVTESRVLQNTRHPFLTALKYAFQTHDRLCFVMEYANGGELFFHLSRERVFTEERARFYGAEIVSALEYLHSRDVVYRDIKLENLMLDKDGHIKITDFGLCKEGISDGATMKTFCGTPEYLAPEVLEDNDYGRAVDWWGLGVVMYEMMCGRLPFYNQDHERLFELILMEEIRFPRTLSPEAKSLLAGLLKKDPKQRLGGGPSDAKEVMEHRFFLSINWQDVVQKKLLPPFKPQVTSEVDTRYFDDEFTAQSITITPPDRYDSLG

On to “polypeptide NH2-REPRILSEEEQEMFRDFDYIADW-COOH comprising a hydrophobic motif; activates AGC kinases (H-REPRILSEEEQEMFRDFDYIADW-OH) [PIFtide]”, for which the AC50 was 5 µM.
